Assay results published in patent publication US20260000736A1, “PURIFIED LACTOFERRIN COMPOSITIONS AND METHODS OF USE” (Lactea Therapeutics LLC, priority 2023, published 2026).
Values joined by “and” are separate entries in the source; they are usually repeats but may differ in a detail not shown here. Identical values can stand only once.

Key:
SARS-CoV-2 = SARS-CoV-2 Cytopathic Effect (CPE) reduction assay in Vero E6 cells; type: cell-based; conditions: Vero E6 cells, MOI of 0.001, neutral red, three days post-infection
[1] = Differential Scanning Calorimetry (DSC) of apolactoferrin and hololactoferrin forms; type: physicochemical; conditions: 10 mg/mL
Description: Di[…] Calorimetry (DSC) was used to assess the hololactoferrin and apolactoferrin forms through monitoring unfolding temperatures of lactoferrin samples using a nanoDSC (TA Instruments, Lindon, UT) according to standard DSC protocols known to those of skill in the art (e.g., see Hinz et al “M[…] […] OF […] ON […] DI[…] CALORIMETRY”; herein incorporated by reference for all purposes.
API-E2 Lactoferrin (10 mg/mL), produced as described herein, was assessed by DSC. […] The lack of other peaks indicates the lack of contaminants and impurities and can assess API-E2 as ˜100%. […] Additionally, the lack of other peaks also indicated the purity of API-E2 Lactoferrin. […] The API-E2 hololactoferrin peak has a Tm of 88.38+/−0.8 C and a delta H of 632.7+/−7.2 kJ/mol. The hololactoferrin natively accounted for on average 8.74+/−1.39% of the total API-E2 lactoferrin with apolactoferrin accounting for the rest in the samples tested. However, the hololactoferrin percentage can be naturally variable. The API-E2 was calculated by this technique to contain virtually 100% pure lactoferrin.
The assay was also performed with heat-treated API-E2 Lactoferrin. API-E2 Lactoferrin was heated across a range of 50-100° C.
Lab-grade standard lactoferrin and a commercially available supplement-grade lactoferrin were also assessed by DSC under the conditions used to assess API-E2 above.

[2] = test system: salivary human bacteria (including Lactobacillus, Lactococcus, Streptococcus mutans, and Porphyromonas gingivalis); experiment: Poultry surface treatment, chicken breast inoculated with salivary bacteria; conditions: 3 mg/mL surface treatment, 6 days at 37° C.
Description: Chicken breasts were inoculated with salivary human bacteria in a slurry as described above in pH testing (including Lactobacillus, Lactococcus, Streptococcus mutans, and Porphyromonas gingivalis) and left for 6 days at 37° C.

E. coli = experiment: Zone of inhibition test; type: cell-based
Description: A zone of inhibition test was performed to assess bioactivity of API-E2 Lactoferrin. A plate with E. coli was cultured with 100 µg/mL, 10 g/mL, 1 g/mL, and 0.1 g/mL API-E2 Lactoferrin added to paper circles and allowed to diffuse out.

lactoperoxidase (LPO) = experiment: Enzymatic colorimetric assay for lactoperoxidase (LPO) activity; type: biochemical; conditions: colorimetric peroxidase substrate
Excerpt: An enzymatic assay for lactoperoxidase (LPO) activity was developed utilizing a molecule which in the presence of peroxidase activity turns a blue color.

Escherichia coli = experiment: Biofilm formation, crystal violet assay; type: cell-based; conditions: 24 hours of growth
Streptococcus mutans = experiment: Biofilm formation, crystal violet assay; type: cell-based; conditions: 24 hours of growth
Staphylococcus aureus = experiment: Biofilm formation, crystal violet assay; type: cell-based; conditions: 24 hours of growth
[3] = test system: Staphylococcus epidermidis; experiment: Biofilm formation, crystal violet assay; type: cell-based; conditions: 24 hours of growth
Enterococcus faecalis = experiment: Biofilm formation, crystal violet assay; type: cell-based; conditions: 24 hours of growth
Candida albicans = experiment: Biofilm formation, crystal violet assay; type: cell-based; conditions: 24 hours of growth
Candida auris = experiment: Biofilm formation, crystal violet assay; type: cell-based; conditions: 24 hours of growth
Cryptococcus neoformans = experiment: Biofilm formation, crystal violet assay; type: cell-based; conditions: 24 hours of growth
[4] = test system: mice with two 10 mm puncture wounds through the skin; experiment: Mouse puncture wound model, survival; type: in vivo
Description: Lactea Lactoferrin (Lactea-Lf) was produced as described in the above examples and freeze-dried by lyophilization into a powder. Lactea-Lf was then administered as the freeze-dried powder in a variety of animal wound contexts.
In a first assessment in a mouse model setting, mice were anesthetized with isoflurane and two 10 mm puncture wounds were made through the skin of each mouse on the back. Three of the mice were treated with Lf added as a freeze dried powder directly into the wound bed while anesthetized immediately after wounds were made, while the three other mice were left completely untreated. Mice were then transferred to non-sterile housing and observed daily.

[5] = test system: pigs with dermatome wounds; experiment: Pig dermatome wound healing model; type: in vivo; conditions: dermatome wounds 40×40 mm at a depth of 0.76 mm, topical treatment
Description: In a first assessment in a pig model setting, using a dermatome, six wounds were made on each pig with three on the left side and three on the right side of each pig covering a surface area of 40×40 mm at a depth of 0.76 mm. […] For each pig, the wounds on the left of the animal were treated while the wounds on the right wide were left as untreated controls. […] Standard of care was advised on by veterinarians with experience in dealing with wound management in a farm setting.

[6] = DSC of additional batches, ratio of apo to holo-Lactoferrin; type: physicochemical; conditions: 5 mg/mL, 30° C. to 100° C. range
Description: Additional batches of Lactea-Lf as described in the above examples and the relative ratio of apo to holo-Lactoferrin was assessed by Differential Scanning Calorimetry (DSC). Lactoferrin samples were loaded at 5 mg/mL into a NanoDSC (TI Instruments) and measured in the 30° C. to 100° C. range. […] It is likely that these peaks are smaller as the sample is highly impure or contains already denatured product.

B1: Lactea-Lf: bovine lactoferrin purified from raw untreated milk by cation exchange chromatography and filtration according to Example 1 (protein)
chain: APRKNVRWCTISQPEWFKCRRWQWRMKKLGAPSITCVRRAFALECIRAIAEKKADAVTLDGGMVFEAGRDPYKLRPVAAEIYGTKESPQTHYYAVAVVKKGSNFQLDQLQGRKSCHTGLGRSAGWVIPMGILRPYLSWTESLEPLQGAVAKFFSASCVPCIDRQAYPNLCQLCKGEGENQCACSSREPYFGYSGAFKCLQDGAGDVAFVKETTVFENLPEKADRDQYELLCLNNSRAPVDAFKECHLAQVPSHAVVARSVDGKEDLIWKLLSKAQEKFGKNKSRSFQLFGSPPGQRDLLFKDSALGFLRIPSKVDSALYLGSRYLTTLKNLRETAEEVKARYTRVVWCAVGPEEQKKCQQWSQQSGQNVTCATASTTDDCIVLVLKGEADALNLDGGYIYTAGKCGLVPVLAENRKTSKYSSLDCVLRPTEGYLAVAVVKKANEGLTWNSLKDKKSCHTAVDRTAGWNIPMGLIVNQTGSCAFDEFFSQSCAPGRDPKSRLCALCAGDDQGLDKCVPNSKEKYYGYTGAFRCLAEDVGDVAFVKNDTVWENTNGESTADWAKNLNREDFRLLCLDGTRKPVTEAQSCHLAVAPNHAVVSRSDRAAHVKQVLLHQQALFGKNGKNCPDKFCLFKSETKNLLFNDNTECLAKLGGRPTYEEYLGTEYVTAIANLKKCSTSPLLEACAFLTR
- EC50 (SARS-CoV-2): 90 nM
- % of Total, Apolactoferrin [1]: 91.26 +/− 1.39%
- % of Total, Hololactoferrin ([1]; listed as API-E2): 8.74+/−1.39%
- Delta H, Apolactoferrin peak ([1]; listed as API-E2): 111.4 ± 2.2 kcal/mol
- Delta H, Hololactoferrin peak ([1]; listed as API-E2): 151.2 ± 1.72 kcal/mol
- Tm, Apolactoferrin peak ([1]; listed as API-E2): 60.2+/−0.8 C and 60.2 +/− .8 C
- Tm, Hololactoferrin peak ([1]; listed as API-E2): 88.38+/−0.8 C and 88.38 +/− .8 C
- bacterial growth on chicken breast [2]: no detectable growth of any bacteria colonies
- zone of inhibition (E. coli; 10 µg/mL on paper circles): complete inhibition
- zone of inhibition (E. coli; 100 µg/mL on paper circles): complete inhibition
- zone of inhibition (E. coli; 0.1 g/mL on paper circles): No zone of inhibition
- zone of inhibition (E. coli; 1 g/mL on paper circles): limited zone of inhibition
- LPO enzymatic activity (blue color reaction) (lactoperoxidase (LPO)): neither detected by M/S or by the enzymatic assay
- Inhibition of Biofilm Formation (Escherichia coli): Strong (Lf was deemed to have a strong activity if biofilms were eliminated or significantly reduced to less than 90% less than no treatment at concentrations of 10 mg/mL or less after 24 hours of growth)
- Inhibition of Biofilm Formation (Streptococcus mutans): Strong (Lf was deemed to have a strong activity if biofilms were eliminated or significantly reduced to less than 90% less than no treatment at concentrations of 10 mg/mL or less after 24 hours of growth)
- Inhibition of Biofilm Formation (Staphylococcus aureus): Strong (Lf was deemed to have a strong activity if biofilms were eliminated or significantly reduced to less than 90% less than no treatment at concentrations of 10 mg/mL or less after 24 hours of growth)
- Inhibition of Biofilm Formation [3]: Strong (Lf was deemed to have a strong activity if biofilms were eliminated or significantly reduced to less than 90% less than no treatment at concentrations of 10 mg/mL or less after 24 hours of growth)
- Inhibition of Biofilm Formation (Enterococcus faecalis): Strong (Lf was deemed to have a strong activity if biofilms were eliminated or significantly reduced to less than 90% less than no treatment at concentrations of 10 mg/mL or less after 24 hours of growth)
- Inhibition of Biofilm Formation (Candida albicans): Strong (Lf was deemed to have a strong activity if biofilms were eliminated or significantly reduced to less than 90% less than no treatment at concentrations of 10 mg/mL or less after 24 hours of growth)
- Inhibition of Biofilm Formation (Candida auris): Strong (Lf was deemed to have a strong activity if biofilms were eliminated or significantly reduced to less than 90% less than no treatment at concentrations of 10 mg/mL or less after 24 hours of growth)
- Inhibition of Biofilm Formation (Cryptococcus neoformans): Strong (Lf was deemed to have a strong activity if biofilms were eliminated or significantly reduced to less than 90% less than no treatment at concentrations of 10 mg/mL or less after 24 hours of growth)
- survival of mice following wounding ([4]; freeze dried powder directly into the wound bed, non-sterile housing, study to day 28, all three untreated mice died by day 12): only one mouse died at day 14 and the other two survived to the conclusion of the study at day 28
- toxicity of powder administered to wounds ([4]; mice, freeze-dried powder of pure Lf administered to the wounds): no toxicity was observed
- wound healing [5]: healing occurred within one day
- denaturation peak corresponding to apo-Lf [6]: ~60 °C
- denaturation peak corresponding to holo-Lf [6]: 90 °C
- relative ratio of apo to holo-Lactoferrin, DSC peak pattern [6]: heavily skewed towards apo-Lf
